Test results as given in article PMC6275495.

Target: PDGFRs (PDGFRα and PDGFRβ subunit dimers) (mouse (endogenous in MEFs)) (UniProt P26618)
Experiment: affinity purification with mass spectrometry

Sequence of UniProt P26618 (P26618 25-1089, chain 1 of 2): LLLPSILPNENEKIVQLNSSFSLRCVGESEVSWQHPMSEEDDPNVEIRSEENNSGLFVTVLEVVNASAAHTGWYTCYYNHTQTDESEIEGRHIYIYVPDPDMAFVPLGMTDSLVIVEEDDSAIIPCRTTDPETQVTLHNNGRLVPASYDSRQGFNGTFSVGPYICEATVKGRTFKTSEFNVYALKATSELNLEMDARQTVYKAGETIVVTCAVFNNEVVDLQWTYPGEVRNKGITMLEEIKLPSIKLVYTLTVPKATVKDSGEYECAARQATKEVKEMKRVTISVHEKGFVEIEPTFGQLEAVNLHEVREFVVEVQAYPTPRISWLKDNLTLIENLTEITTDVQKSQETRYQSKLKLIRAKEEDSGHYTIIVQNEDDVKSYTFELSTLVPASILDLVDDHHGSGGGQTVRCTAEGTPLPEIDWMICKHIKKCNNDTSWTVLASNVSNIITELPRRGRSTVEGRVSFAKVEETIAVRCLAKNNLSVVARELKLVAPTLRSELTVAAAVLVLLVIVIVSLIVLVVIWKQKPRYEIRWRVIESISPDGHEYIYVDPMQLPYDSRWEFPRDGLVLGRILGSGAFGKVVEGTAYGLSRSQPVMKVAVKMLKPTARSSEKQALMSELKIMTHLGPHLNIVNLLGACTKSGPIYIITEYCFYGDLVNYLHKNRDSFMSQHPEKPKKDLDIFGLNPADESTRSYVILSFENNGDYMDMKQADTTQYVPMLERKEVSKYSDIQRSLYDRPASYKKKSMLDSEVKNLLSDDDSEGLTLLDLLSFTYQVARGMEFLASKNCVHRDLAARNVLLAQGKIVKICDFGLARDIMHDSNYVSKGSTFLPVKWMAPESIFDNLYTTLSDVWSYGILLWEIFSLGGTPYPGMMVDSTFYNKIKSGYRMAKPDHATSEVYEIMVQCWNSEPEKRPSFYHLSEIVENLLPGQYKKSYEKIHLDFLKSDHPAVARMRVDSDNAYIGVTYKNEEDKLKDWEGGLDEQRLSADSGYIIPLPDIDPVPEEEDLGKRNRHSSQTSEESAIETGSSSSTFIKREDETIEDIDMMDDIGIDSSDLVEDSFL
Sequence of UniProt P26618 (P05622 32-1098, chain 2 of 2, further chain): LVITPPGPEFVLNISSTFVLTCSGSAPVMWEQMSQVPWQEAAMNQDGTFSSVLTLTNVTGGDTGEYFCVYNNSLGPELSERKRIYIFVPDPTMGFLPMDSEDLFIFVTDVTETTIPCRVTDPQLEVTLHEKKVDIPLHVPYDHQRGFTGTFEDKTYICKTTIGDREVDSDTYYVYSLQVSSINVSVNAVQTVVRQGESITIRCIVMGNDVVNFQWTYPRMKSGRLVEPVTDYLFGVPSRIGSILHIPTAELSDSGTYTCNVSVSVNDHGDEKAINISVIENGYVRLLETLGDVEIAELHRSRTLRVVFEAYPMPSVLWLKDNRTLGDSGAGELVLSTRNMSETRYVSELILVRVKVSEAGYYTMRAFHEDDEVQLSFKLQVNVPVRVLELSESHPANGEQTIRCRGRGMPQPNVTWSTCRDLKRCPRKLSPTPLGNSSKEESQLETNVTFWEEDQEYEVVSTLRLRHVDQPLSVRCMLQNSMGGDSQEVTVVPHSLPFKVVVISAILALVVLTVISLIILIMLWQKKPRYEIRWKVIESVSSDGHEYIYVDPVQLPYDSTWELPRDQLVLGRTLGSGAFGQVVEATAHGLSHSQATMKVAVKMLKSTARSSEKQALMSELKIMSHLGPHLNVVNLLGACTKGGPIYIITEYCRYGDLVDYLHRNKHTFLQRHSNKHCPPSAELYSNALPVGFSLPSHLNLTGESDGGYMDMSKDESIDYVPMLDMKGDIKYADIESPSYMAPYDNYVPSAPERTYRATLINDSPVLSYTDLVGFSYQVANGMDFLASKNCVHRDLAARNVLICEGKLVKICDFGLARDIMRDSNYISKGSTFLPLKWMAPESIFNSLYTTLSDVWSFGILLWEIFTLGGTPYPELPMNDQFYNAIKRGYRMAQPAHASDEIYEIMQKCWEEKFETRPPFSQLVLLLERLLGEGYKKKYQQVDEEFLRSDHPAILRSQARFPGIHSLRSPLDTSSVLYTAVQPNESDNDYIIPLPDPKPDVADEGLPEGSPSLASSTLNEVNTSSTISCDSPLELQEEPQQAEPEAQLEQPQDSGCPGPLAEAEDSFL

percent of total associated with anti-PDGFR-IPs: > 80%
Substance: total p85
